Experimental data as given in patent US20090124555A1, “USE OF HISTOGRANIN AND HISTOGRANIN-LIKE COMPOUNDS AS INHIBITORS OF P2X7 RECEPTOR FUNCTION AND AS ANTI-ARTHRITIC AGENTS” (priority 2005, published 2009).
“Also recorded” adds a separate entry of the source.

Tests used:
P2X7 receptor [1] = biological target: T1, P2X7 receptor (Mus musculus, UniProt Q9Z1M0); assay: ATP-induced extracellular release of IL-1.beta, IL-1.alpha and IL-6 in vivo (peritoneal lavage of LPS-primed mice); conditions: 0.1 mg and 0.3 mg i.p. 15 min before ATP, FIG. 6B
T1 construct: from tissue; host or cells: living mice; peritoneal cavity (lavage fluid analysed)
T1 sequence (Q9Z1M0 1-595): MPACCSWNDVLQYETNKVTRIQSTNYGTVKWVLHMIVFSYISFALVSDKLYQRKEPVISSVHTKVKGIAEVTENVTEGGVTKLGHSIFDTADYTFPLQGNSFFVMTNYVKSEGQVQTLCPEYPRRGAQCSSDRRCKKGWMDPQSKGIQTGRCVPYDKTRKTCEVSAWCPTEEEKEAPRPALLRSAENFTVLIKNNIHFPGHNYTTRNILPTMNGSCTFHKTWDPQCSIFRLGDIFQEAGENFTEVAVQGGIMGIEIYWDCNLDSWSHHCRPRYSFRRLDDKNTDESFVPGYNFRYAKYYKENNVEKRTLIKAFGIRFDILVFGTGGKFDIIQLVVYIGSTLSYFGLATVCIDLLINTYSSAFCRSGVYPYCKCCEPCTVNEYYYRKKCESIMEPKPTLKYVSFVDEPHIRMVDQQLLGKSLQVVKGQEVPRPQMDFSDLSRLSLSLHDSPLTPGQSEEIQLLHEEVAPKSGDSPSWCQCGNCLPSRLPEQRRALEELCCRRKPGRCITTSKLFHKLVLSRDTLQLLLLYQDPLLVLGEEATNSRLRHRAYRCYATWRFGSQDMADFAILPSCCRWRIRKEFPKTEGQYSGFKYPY
Protocol: Groups of mice were injected intraperitoneally (i.p.) with 50 μg of LPS. Two hours after this LPS injection, mice were injected i.p. with either PBS or ATP (5 mM, adjusted to pH 7), or with HN compounds (0.1 mg and 0.3 mg) 15 minutes before ATP injection. Mice were sacrificed 30 minutes (IL-1.beta and IL-1.alpha) or 120 minutes (IL-6) after the ATP or PBS injection and peritoneal cavities were lavaged each with 3 ml PBS. Samples of peritoneal lavages were centrifuged, cell-free supernatants were collected and tested for the presence of IL-1.beta, IL-1.alpha and IL-6 using ELISA (R&D Systems, Minneapolis, Minn., and Biosource, Camarillo, Calif., respectively).

[2] = test system: DBA/1 mice with collagen-induced arthritis; assay: Collagen-induced arthritis (CIA) in mice, clinical and histologic scoring; type: in vivo; conditions: 0.3 mg i.p. daily before LPS and onset
Protocol: For induction of arthritis, DBA/1 mice (The Jackson Laboratory, Bar Harbor, Me.) were immunized intradermally at the base of the tail with bovine type II collagen (100 μg; Chondrex, Richmond, Wash.) emulsified in Freund's complete adjuvant (Chondrex, Richmond, Wash.). On day 21, the animals were boosted with an intradermal injection of 100 μg type II collagen. To synchronize the onset of arthritis, mice were subsequently injected i.p. with LPS (50 μg) (Yoshino et al. (2000) J. Immunol. 163:3417-3422).
To test the subject of the present invention, mice were divided in various groups: mice injected with saline (negative control), mice injected with collagen and LPS (positive control), mice injected with collagen and treated i.p. daily with HN compound starting 2 days before i.p. injection of LPS and onset of arthritis, and mice injected with collagen and LPS, and treated i.p. daily with RN compound after the onset of arthritis as monitored by the presence of a positive clinical score index as described below.
The incidence of arthritis was monitored daily by macroscopic clinical scoring on a 0-3 scale where 0=normal: 1=slight swelling and erythema. […] Limb swelling was also measured with calipers (Wallace et al. (1999) J. Immunol. 162:5547-5555). […] Cartilage destruction was evaluated as the extent of loss of glycosaminoglycan matrix, death of chondrocytes, thinning and destruction. […]

P2X7 receptor [3] = biological target: T2, P2X7 receptor (Rattus norvegicus, UniProt Q64663); assay: ATP-induced membrane permeabilization and pore formation (ethidium bromide uptake) in alveolar macrophages; type: cell-based; conditions: rat alveolar macrophages, FIG. 1A
T2 construct: Alveolar macrophages (AM) were recovered from normal rats by bronchoalveolar lavage; endogenous in cells; host or cells: primary alveolar macrophages from male Wistar rats (bronchoalveolar lavage)
T2 sequence (Q64663 1-595): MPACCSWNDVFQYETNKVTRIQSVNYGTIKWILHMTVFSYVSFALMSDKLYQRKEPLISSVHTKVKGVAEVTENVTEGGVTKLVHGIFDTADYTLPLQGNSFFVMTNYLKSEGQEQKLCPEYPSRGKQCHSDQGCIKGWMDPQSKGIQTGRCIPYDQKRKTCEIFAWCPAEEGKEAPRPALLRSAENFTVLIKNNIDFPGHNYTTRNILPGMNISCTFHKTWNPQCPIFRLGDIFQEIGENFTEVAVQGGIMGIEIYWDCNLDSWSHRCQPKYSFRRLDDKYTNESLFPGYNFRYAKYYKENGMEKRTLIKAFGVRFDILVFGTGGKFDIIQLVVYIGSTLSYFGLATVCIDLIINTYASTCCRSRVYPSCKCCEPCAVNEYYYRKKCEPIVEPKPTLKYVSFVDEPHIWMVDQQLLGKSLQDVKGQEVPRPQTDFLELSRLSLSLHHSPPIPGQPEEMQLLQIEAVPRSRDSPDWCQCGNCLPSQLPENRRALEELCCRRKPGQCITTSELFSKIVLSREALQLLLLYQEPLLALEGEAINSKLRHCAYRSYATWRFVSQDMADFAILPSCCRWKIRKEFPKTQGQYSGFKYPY
Protocol: Alveolar macrophages (AM) were recovered from normal rats by bronchoalveolar lavage (BAL) as described previously (Lemaire (1991) Am. J. Pathol. 138:487-495). The lungs were lavaged with 7 ml-aliquots of sterile phosphate buffered saline (pH 7.4; Wisent, St. Bruno, QC), and BAL cells were obtained by centrifugation at 200×g at 4° C. for 5 minutes. The cells were resuspended in RPMI 1640 medium (Wisent, St-Bruno, QC) supplemented with 0.5% dialysed fetal bovine serum (Wisent. St-Bruno, QC), 0.005% gentamycin (Schering Canada Inc. Pointe Claire. QC) and 0.8% HEPES (Sigma Chemical Co., St-Louis, MO) which will henceforth be referred to as complete culture medium (CM).
Freshly isolated AM (1×10^5) were incubated in 200 μl complete medium in 96 wells tissue culture plates for 24 h. Following centrifugation, medium was replaced with saline solution containing 125 mM NaCl, 5 mM KCL, 1 mM MgSO4, 1 mM Na2HPO4, 5.5 mM glucose, 5 mM NaHCO3, 1 mM CaCl2 and 20 mM Hepes, pH 7.6. Ethidium bromide was added to a final concentration of 20 μM and AM were stimulated with ATP (5 mM, Sigma), 3′-O-(4-benzoylbenzoyl ATP (BzATP) (0.5 mM, Molecular Probes) or uridine 5′-triphosphate (UTP) (Sigma), at 37° C. for 5 minutes. In some experiments, cells were pre-treated with oxidized ATP (oATP, 0.1 mM, Sigma) for 2 h or Brilliant Blue G (BBG, 5×10^−9M, Sigma) for 5 minutes, or HN compounds for 5 minutes before ATP stimulation. After ATP stimulation, the plate was centrifuged (200×g, 1 minute), culture supernatants were replaced with fresh buffer and the fluorescence was analyzed using a Zeiss Axiovert S1100 TV inverted microscope equipped with a rhodamine filter and a 32× objective. Images were captured and analysed with the Northern Eclipse image analysis software. Data are expressed as percentage of cells that become permeabilized to ethidium bromide.

P2X7 receptor [4] = biological target: T1, P2X7 receptor; assay: P2X7 receptor-stimulated IL-1.beta release ex vivo, blood-based IL-1.beta assay in CIA mice; conditions: blood of i.p. treated CIA mice, FIG. 12C
Protocol: P2X7 receptor-stimulated IL-1 release ex vivo was performed with a blood-based IL-1.beta assay (Perregaux et al. (2000) J. Immunol. 165:4615-4623). Blood was collected from mice in each group in heparin-containing tubes. A total of 120 μl of blood was placed into an individual well of a 96-well plate and diluted with 120 μl RPMI 1640 medium containing 25 mM HEPES and 1% dialysed FBS. The diluted blood samples were incubated for 3 h in the presence and absence of LPS (1 μg/ml) at 37° C. in 5% CO2. ATP (5 mM, pH 7) was then added as a secretion stimulus and the mixtures were incubated at 37° C. for an additional 2 h. The 96-well plates were then centrifuged at 700×g for 10 min at 4° C., and the resulting plasma samples were collected and assayed for their IL-1.beta content by ELISA (R&D Systems, Minneapolis, Minn.).

Molecule: N=C(N)NCCC[C@H](Nc1ccccc1NC(=O)Cc1ccc(O)cc1)C(N)=O [C-11, N-5-guanidinopentanamide-(2S)-yl-2-N (p-hydroxyphenylacetyl)phenylenediamine]
- IL-1.beta in peritoneal lavage in response to ATP, various HN compounds (P2X7 receptor [1]): inactive; also recorded: did not inhibit
- arthritis score index ([2]; FIG. 12A): did not reduce
- histological score index ([2]; both knees, FIG. 12B): did not reduce

Molecule: cyclic (-Gly-Ala-Tyr-D-Arg-) (GAYR; HELM PEPTIDE1{G.A.Y.[dR]}$PEPTIDE1,PEPTIDE1,1:R1-4:R2$$$V2.0; SMILES C[C@@H]1NC(=O)CNC(=O)[C@@H](CCCNC(=N)N)NC(=O)[C@H](Cc2ccc(O)cc2)NC1=O) [C-9]
- inhibition of ATP-induced pore formation (ethidium bromide uptake) (P2X7 receptor [3]; ATP 5 mM, 5 min, compound 10^−9M): inhibited significantly
- inhibition of BzATP-induced pore formation (P2X7 receptor [3]; BzATP 0.5 mM): inhibit
- IL-1.beta in peritoneal lavage in response to ATP, various HN compounds (P2X7 receptor [1]): reduced levels
- ATP-induced IL-1.beta release in peripheral blood (P2X7 receptor [4]; ATP without LPS ex vivo): inhibit
- LPS+ATP-induced IL-1.beta release in peripheral blood (P2X7 receptor [4]; LPS 3 h then ATP 2 h ex vivo): inhibit
